Key:
[1] = biological target: HeV-G globular head domain (174–602) (Hendra virus) (UniProt O89343); experiment: crystal structure
[2] = biological target: T1, Ephrin-B2 (S27-D167) (UniProt P52799 27-167); experiment: crystal structure; settings: both partners purified
T1 construct: also called ephrin-B2 receptor; not shown: Fc, C-terminal, cleaved
T1 sequence (looked up): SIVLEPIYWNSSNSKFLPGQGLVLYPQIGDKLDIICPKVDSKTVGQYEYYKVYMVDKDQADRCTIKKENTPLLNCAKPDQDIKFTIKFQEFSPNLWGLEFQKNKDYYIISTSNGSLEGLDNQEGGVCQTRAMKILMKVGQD

Row | Molecule | stoichiometry N [1] | stoichiometry N [2]
1 | HeV-G globular head domain (174–602) (from UniProt O89343 174-602) (domain or fragment) | 2 | –
2 | HeV-G globular head domain (174–602) (domain or fragment) ISQGVSDLVGLPNQICLQKTTSTILKPRLISYTLPINTREGVCITDPLLAVDNGFFAYSHLEKIGSCTRGIAKQRIIGVGEVLDRGDKVPSMFMTNVWTPPNPSTIHHCSSTYHEDFYYTLCAVSHVGDPILNSTSWTESLSLIRLAVRPKSDSGDYNQKYIAITKVERGKYDKVMPYGPSGIKQGDTLYFPAVGFLPRTEFQYNDSNCPIIHCKYSKAENCRLSMGVNSKSHYILRSGLLKYNLSLGGDIILQFIEIADNRLTIGSPSKIYNSLGQPVFYQASYSWDTMIKLGDVDTVDPLRVQWRNNSVISRPGQSQCPRFNVCPEVCWEGTYNDAFLIDRLNWVSAGVYLNSNQTAENPVFAVFKDNEILYQVPLAEDDTNAQKTITDCFLLENVIWCISLVEIYDTGDSVIRPKLFAVKIPAQCS | – | 1

Reference: article PMC3489827 (PLoS ONE, 2012)
